Measurements from patent US20120156175A1.

Molecular target: integrin alpha V beta 5 (human) (UniProt P06756)
Assay: cell-based or functional assay

Chain of UniProt P06756 (P06756 31-1048, chain 1 of 2): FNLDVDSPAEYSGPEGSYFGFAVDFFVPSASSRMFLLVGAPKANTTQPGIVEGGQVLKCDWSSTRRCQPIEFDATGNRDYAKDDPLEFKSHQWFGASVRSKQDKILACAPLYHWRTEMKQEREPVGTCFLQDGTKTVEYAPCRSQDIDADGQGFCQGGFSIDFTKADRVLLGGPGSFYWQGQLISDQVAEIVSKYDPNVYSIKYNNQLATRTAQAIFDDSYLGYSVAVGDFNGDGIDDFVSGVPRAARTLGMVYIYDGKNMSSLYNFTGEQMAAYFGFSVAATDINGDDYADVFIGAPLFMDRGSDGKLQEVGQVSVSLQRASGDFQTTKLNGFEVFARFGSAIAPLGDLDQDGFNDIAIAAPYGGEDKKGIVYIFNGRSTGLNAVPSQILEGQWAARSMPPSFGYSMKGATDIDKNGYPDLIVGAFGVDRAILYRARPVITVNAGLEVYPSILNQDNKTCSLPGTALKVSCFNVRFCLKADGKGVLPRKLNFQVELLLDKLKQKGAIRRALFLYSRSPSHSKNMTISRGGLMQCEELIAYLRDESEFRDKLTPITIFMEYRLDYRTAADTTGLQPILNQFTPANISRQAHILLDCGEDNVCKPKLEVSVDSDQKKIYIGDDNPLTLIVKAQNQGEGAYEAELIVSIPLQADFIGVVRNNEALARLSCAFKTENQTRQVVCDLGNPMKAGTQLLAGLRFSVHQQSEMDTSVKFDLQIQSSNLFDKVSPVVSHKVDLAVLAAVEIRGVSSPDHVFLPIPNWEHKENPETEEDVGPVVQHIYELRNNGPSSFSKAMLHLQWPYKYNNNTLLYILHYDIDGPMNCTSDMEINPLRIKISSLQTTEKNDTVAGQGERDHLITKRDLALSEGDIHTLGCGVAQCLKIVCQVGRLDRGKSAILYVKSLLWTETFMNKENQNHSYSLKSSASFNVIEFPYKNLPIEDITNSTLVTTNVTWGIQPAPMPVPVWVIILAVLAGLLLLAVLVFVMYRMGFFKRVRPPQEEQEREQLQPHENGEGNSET
Chain of UniProt P06756 (P18084 24-799, chain 2 of 2, further chain): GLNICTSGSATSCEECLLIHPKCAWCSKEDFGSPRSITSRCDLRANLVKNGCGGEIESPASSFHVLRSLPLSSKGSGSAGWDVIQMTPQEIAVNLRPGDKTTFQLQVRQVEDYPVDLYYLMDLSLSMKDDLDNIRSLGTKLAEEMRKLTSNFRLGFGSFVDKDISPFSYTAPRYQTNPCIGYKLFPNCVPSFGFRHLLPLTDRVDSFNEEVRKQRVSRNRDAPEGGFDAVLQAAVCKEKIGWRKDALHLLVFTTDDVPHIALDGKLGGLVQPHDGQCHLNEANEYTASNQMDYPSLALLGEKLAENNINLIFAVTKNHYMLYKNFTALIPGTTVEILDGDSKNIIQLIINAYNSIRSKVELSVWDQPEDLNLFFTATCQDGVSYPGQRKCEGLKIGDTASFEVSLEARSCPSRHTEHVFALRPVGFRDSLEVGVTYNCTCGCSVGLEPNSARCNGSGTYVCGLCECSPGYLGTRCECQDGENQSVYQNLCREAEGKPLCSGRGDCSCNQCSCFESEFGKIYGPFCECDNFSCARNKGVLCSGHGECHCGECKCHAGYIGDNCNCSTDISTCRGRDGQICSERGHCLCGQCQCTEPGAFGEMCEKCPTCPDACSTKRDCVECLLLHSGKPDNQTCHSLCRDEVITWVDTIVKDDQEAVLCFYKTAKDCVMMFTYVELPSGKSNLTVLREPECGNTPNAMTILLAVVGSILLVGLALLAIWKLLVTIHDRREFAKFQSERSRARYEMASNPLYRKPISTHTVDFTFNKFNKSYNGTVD

- ability to induce the migration of neural stem cells (Boyden chamber assay, HB1.F3 cells, against cells not treated with periostin): 100%
Substance: periostin (from UniProt Q15063 22-779) (ligand)
